According to the RNAGym collection of RNA variant scans (doi:10.1073/pnas.2313332121):
Variants at the floor of the assay were thinned out.

B1: TPR 5TU (parent)
chain: GGAUCUUCUCGAUCUAACAAAAAAGACAAAUCUGCCACAAAGCUUGAGAGCAUCUUCGGAUGCAGAGGCGGCAGCCUUCGGUGGCGCGAUAGCGCCAACGUUCUCAACUAUGACACGCAAAACGCGUGCUCCGUUGAAUGGAGUUUAUCAUG

Variants of: B1
Test: polymerase ribozyme fitness, log enrichment relative to wild type (log ratio); higher = more active; in vitro selection for triplet polymerase activity
Outline: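 Mutant libraries for each subunit of a heterodimeric triplet polymerase ribozyme were made by PCR and then transcribed. Each library underwent one round of in vitro selection in triplicate: annealing with a biotinylated primer, the partner subunit and triplets, frozen incubation at −7 °C, gel excision of extended constructs, streptavidin-bead capture and RT-PCR. Input and output libraries were Illumina-sequenced, and only genotypes with ≥10 input reads and ≥1 read per output were kept. Fitness is the logarithm, base 2, of genotype enrichment over wild-type enrichment, computed from inverse-variance-weighted replicate averages.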

Variant	polymerase ribozyme fitness (log ratio)
GGAUCUUCUCGAUCUAACAAAAAAGACAAAUCUGCCACAAAGCUUGAGAGCAACUUCGGAUGCAGAGGCGGCAGCCUUAGGUGGCGCGAUAGCGCCAACGUUCUCAACUAUGACACGCAAAACGCGUGCUCCGUUGAAUGGAGUUUAUCAUG	≤ -4.2
GGAUCUUCUCGAUCUAACAAAAAAGACAAAUCUGCCACAAAGCUUGAGAGCAACUUCGGAUGCACAGGCGGCAGCCUUCGGUGGGGCGAUAGCGCCAACGUUCUCAACUAUGACACGCAAAACGCGUGCUCCGUUGUAUCGAGUUUAUCAUG	≤ -4.2
GGAUCUUCUCGAUCUAACAAAAAAGACAAAUCUGCCACAAAGCUUGAGAGCAACUUCGGAUGCAGACGCGGCAGCCUUCGGUGGUGCGAUAGCGCCAACGUUCUCAACGAUGACUCGCAAAACGCGUGCUCCGUUGAAUGGAGUUUAUCAUG	≤ -4.2
GGAUCUUCUCGAUCUAACAAAAAAGACAAAUCUGCCACAAAGCUUGAGAGCAACUUCGGAUGCAGAGGCGGCAGCCUUCGGUGGAGCGAUAGCGCCAACGUUCUCGACUAUGACACGCAAAACGCGUGCUCCGUUGAAUGGAGGUUAUCAUG	-2.88
GGAUCUUCUCGAUCUAACAAAAAAGACAAAUCUGCCACAAAGCUUGAGAGCAACUUCGGAUGCAGAGGCGGCAGCCUUCGGUGGCGCGAUAGCGACAACGUUCUCAACUAUGACACGCAAAACGCGUGCUCCGUUGAAUGGAGUUUAUCAUG	-0.902
GGAUCUUCUCGAUCUAACAAAAAAGACAAAUCUGCCACAAAGCUUGAGAGCAACUUCGGAUGCAGAGGCGGCAGCCUUGGGUGGCGCGAUAGCGCCAACGUUCUCAAUUAUGACACGCAAAACGCGUGCUCCGUUAAAUGGAGGUUAUCAUG	≤ -4.2
GGAUCUUCUCGAUCUAACAAAAAAGACAAAUCUGCCACAAAGCUUGAGAGCAACUUCGGAUGCAGAGGCGGCAGCCUUCGGUGGAGCGAUAGCGCCAACGUUCUCAACUAUGACACGCAAAACGCGUGCUCCGUUGAAUGGAGUUUAUCAUG	-4
GGAUCUUCUCGAUCUAACAAAAAAGACAAAUCUGCCACAAAGCUUGAGAGCAACUUCGGAUGCAGAGGCGGCAGCCUUCGGUGGGGCGAUAGCGCCAACGUUCUCAACUAUGACACGCAAAACGCGUGCUCCGUUGAAUGGAGUUUAUCAUG	-3.15
GGAUCUUCUCGAUCUAACAAAAAAGACAAAUCUGCCACAAAGCUUGAGAGCAACUUCGGAUGCAGAGGCGGCAGCCUUCGGUGGAGCGCUAGCGCCAACGUUCUCAACUAUGACACGCAAAACGCGUGCUCCGUUGAAUGGAGUUUAUCAUG	-3.89
GGAUCUUCUCGAUCUAACAAAAAAGACAAAUCUGCCACAAAGCUUGAGAGCAACUUCGGAUGCAGAGGCGGCAGCCUUCGGUGGAGCGAUAGCGCCAACGUUCUCAACUAUGACACGCAAAACACGUGCUCCGUUGAAUGGAGUUUAUCAUG	-2.89
GGAUCUUCUCGAUCUAACAAAAAAGACAAAUCUGCCACAAAGCUUGAGAGCAACUUCGGAUGCAGAGGCGGCAGCCUUCGGUGGCGCGAUAGCGCAAACGUUCUCAACUAUGACACGCAAAACGUGUGCUCCGUUGAAUGGAGUUUAUCAUG	-1.41
GGAUCUUCUCGAUCUAACAAAAAAGACAAAUCUGCCACAAAGCUUGAGAGCAACUUCGGAUGCAGAGGCGGCAGCCUUCGGUGGCGCGAUAGCGCUAACGUUCUCAACUAUGACACGAAAAACGCGUGCUCCGUUGAAUGGAGUUUAUCAUG	-1.21
GGAUCUUCUCGAUCUAACAAAAAAGACAAAUCUGCCACAAAGCUUGAGAGCAACUUCGGAUGCAGAGGCGGCAGCCUUCGGUGGUGCGAUAGCGCCAACGUUCUGAACUAUGACACGCAAAACGCGUGCUCCGUUGAAUGGAGUUUAUCAUG	≤ -4.2
GGAUCUUCUCGAUCUAACAAAAAAGACAAAUCUGCCACAAAGCUUGAGAGCAACUUCGGAUGCAGAGGCGGCAGCCUUCGGUGGCGCGAUAGCGCCAACGUUCUAAACUAUGACACGCAAAACGCGUGCUCCGUUGAAUGGAGUUUAUCAUG	-2.83
GGAUCUUCUCGAUCUAACAAAAAAGACAAAUCUGCCACAAAGCUUGAGAGCAACUUCGGAUGCAGAGGCAGCAGCCUUCGGUGGCGCGAUAGCGCCAACGUUCUCAACUAUGACACGCAAAACGCGUGCUCCGUUGAAUGGAGUUUAUCAUG	-3.81
GGAUCUUCUCGAUCUAACAAAAAAGACAAAUCUGCCACAAAGCUUGAGAGCAACUUCGGAUGCAGAGGCCGCAGCCUUCGGUGGCGCGAUAGCGCCAACGUUCUCAACUAUGACACGCAAAACGCGUGCUCCGUUGAAUGGAGUUUAUCAUG	≤ -4.2
GGAUCUUCUCGAUCUAACAAAAAAGACAAAUCUGCCACAAAGCUUGAGAGCAACUUCGGAUGCAGAGGCGGCAGCUUUCGGUGGCGCGAUAGCGCCAACGUUCUCAACUAUGACACGCAAAACGCGUGCUCCGUUGAAUGGGGUUUAUCAUG	-2.87
GGAUCUUCUCGAUCUAACAAAAAAGACAAAUCUGCCACAAAGCUUGAGAGCAACUUCGUAUGCAGAGGCGGCAGCCUUCGGUGGCGCGAUAGCGCCAACGUUCUCAACUAUGACACGCAAAACGCGUGCUCCGUUGAAUGGAGUUUAUCAUG	0.71
GGAUCUUCUCGAUCUAACAAAAAAGACAAAUCUGCCACAAAGCUUGAGAGCAACUUCGAAUGCAGAGGCGGCAGCCUUCGGUGGCGCGAUAGCGCCAACGUUCUCAACUAUGACACGCAAAACGCGUGCUCCGUUGAAUGGAGUUUAUCAUG	-0.147

Variant	polymerase ribozyme fitness (log ratio)
GGAUCUUCUCGAUCUAACAAAAAAGACAAAUCUGCCACAAAGCUUGAGAGCAACUUCGGAUGCAAAGGCGGCAGCCUUCGGUGGCGCGAUAGCGCCAACGUUCUCAACUAUGACACGCAAAACGCGUGCUCCGUUGAAUGGAGUUUAUCAUG	-1.33
GGAUCUUCUCGAUCUAACAAAAAAGACAAAUCUGCCACAAAGCUUGAGAGCAACUUCGGAUGCAGAGGCGGCAGCCUUCGGUGGCGCGAUAGCGCCAACGUUCUCAACUAUGACACGUAAAACGCGUGCUCCGUUGAAUGGAGUUUAUCAUG	-1.08
GGAUCUUCUCGAUCUAACAAAAAAGACAAAUCUGCCACAAAGCUUGAGAGCAACUUCGGAUGCAGAGGCGGCAGCCUUCGGUGGCGCGAUAGCGCUAACGUUCUCAACUAUGAGACGCAAAACGCGUGCUCCGUUGAAUGGAGUUUAUCAUG	-4.15
GGAUCUUCUCGAUCUAACAAAAAAGACAAAUCUGCCACAAAGCUUGAGAGCAACUUCGGAUGCAGAGGCGGCAGCCUUCGGUGGCGCGAUAGAGGCAACGUUCUCAACUAUGACACGCAAAACGCGUGCUCCGUUGAAUGGAGUUUAUCAUG	≤ -4.2
GGAUCUUCUCGAUCUAACAAAAAAGACAAAUCUGCCACAAAGCUUGAGAGCAACUUCCUAUGCAGAGGCGGCAGCCUUCGGUGGCGCGAUGGCGCCAACGUUCUCAAAUAUGACACGCAAAACUCUUGCUCCGUUGAAUGGAGUUUAUCAUG	≤ -4.2
GGAUCUUCUCGAUCUAACAAAAAAGACAAAUCUGCCACAAAGCUUGAGAGCAACUUCGGAUGCAGAGGCGGCAACCUUCGGUGGCGCGAUAGCGCCAACGUUCUCAACUAUGACACGCAAAACGCGUGCUCCGUUGAAUGGAGUGUAUCAUG	≤ -4.2
GGAUCUUCUCGAUCUAACAAAAAAGACAAAUCUGCCACAAAGCUUGAGAGCAACUUCGGAUGCAGAGGCGGCAGCCUUCGGUCGCGCGAUAGCGCCAACGUUCUGAACUAUGACACGCAAAACGCGUGCUCCGUUGAAUGGAGUUUAUCAUG	≤ -4.2
GGAUCUUCUCGAUCUAACAAAAAAGACAAAUCUGCCACAAAGCUUGAGAGCAACUUCGGAUGCAGAGGCGGCAGCCUUCGGUGGCGCGAUAGCGCCAACGUUCUCAACUAUGACACGCAAAACGCGUGCUCCGUUGAAUGGAGUUUAUGAUG	-3.71
GGAUCUUCUCGAUCUAACAAAAAAGACAAAUCUGCCACAAAGCUUGAGAGCAACUUCGGAUGCAGAGGCGGCAGCCUUCGGUGGCGUGAUAGCGCCAACGUUCUCAACUAUGACACGCAAAACGCGUGCUCCGUUGAAUGGAGUUUAUCUUG	-0.451
GGAUCUUCUCGAUCUAACAAAAAAGACAAAUCUGCCACAAAGCUUGAGAGCAACUUCGGAUGCAGAGGCGGCAGCCUUCGGUGGCGAGAUAGCGCCAACGUUCUCACAUAGGACACGCAAAACGCGUGCUCCGUUGAAUGGAGUUCAACAUG	≤ -4.2
GGAUCUUCUCGAUCUAACAAAAAAGACAAAUCUGCCACAAAGCUUGAGAGCAACUUCGGAUGCAGAGGCGGCAGCCUUCGGUGGCGCGAUAGUGCCAACGUUCUCAACUAUGACACGCAAAACGCGUGCUCCGUUGAAUGGAGUUUAUCAUG	-2.51
GGAUCUUCUCGAUCUAACAAAAAAGACAAAUCUGCCACAAAGCUUGAGAGCAACUUCGGAUGCAGAGGCGGCAGCCUUCGGUUGCGCGAUAGCGCCAACGUUCUCAACUAUGACCCGCAAAACACGUGCUCCGUUGAAUGGAGUUUAUCAUG	-2.73
GGAUCUUCUCGAUCUAACAAAAAAGACAAAUCUGCCACAAAGCUUGAGAGCAACUUCGGAUGCAGAGUCGGCGGCCUUCGGUGGCGCGAUAGCGCCAACGUUCUCAACUAUGACACGCAAAACGCGUGCUCCGGUGACUGGAGUUUAUCAUG	≤ -4.2
GGAUCUUCUCGAUCUAACAAAAAAGACAAAUCUGCCACAAAGCUUGAGAGCAACUUCGGAUGCAGAGGCCGCAGCCUUCGGUGGCGCGAUAGCGCCAACGUUCUCAACUAUGACACGCAAAACGCGUGCUCCGUUGAAUGGAGUUUAUGAUG	≤ -4.2
GGAUCUUCUCGAUCUAACAAAAAAGACAAAUCUGCCACAAAGCUUGAGAGCAACUUCAGAUGCAGAGGCGGCAGCUUUCGGUGGCGCGAUAGCGCCAACGUUGUCAACUAUGACACGCAAAACGCGUGCUCCGUUGAAUGGAGUUUAUCUUG	≤ -4.2
GGAUCUUCUCGAUCUAACAAAAAAGACAAAUCUGCCACAAAGCUUGAGAGCAACUUCGCAUGCAGAGGCGGCAGCCUUCGGUGGCGUGAUAGCGCAAACGUUCUCAACUAUGGCACGCAAAACGUGUGCUCCGUUGAAUGGAGUUUAUCAUG	≤ -4.2
GGAUCUUCUCGAUCUAACAAAAAAGACAAAUCUGCCACAAAGCUUGAGAGCAACUUCGGAUGCAGAGUCGGCAGCCUUCGGUGGCGCUACAGCGCCAACGUUCUCAACUAUGACACGCAAAACGCGUGCUCCGUUGAAUGGAGUUUAUCAUG	≤ -4.2
GGAUCUUCUCGAUCUAACAAAAAAGACAAAUCUGCCACAAAGCUUGAGAGCAACUUCGGAUGCAGAGGCGGCAGCCUUCGGUUGCGCGAUAGCGCCAACGUUCUCAACUAUGACACGCAAAACGCGUGCUCCGUUGAAUGGAGUUUAUCAUG	-0.881
GGAUCUUCUCGAUCUAACAAAAAAGACAAAUCUGCCACAAAGCUUGAGAGCAACUUCGGAUGCAGAGGCGGCAGCCUUCGGUGGCGCGAUAGCGUCAACGUUCGCAACUAUGACUCGCAAAAUGCGUGCUCCGUUGAAUGGAGUUUAUCAUG	-3.81
